In CN115232210A (SHANGDONG NEW TIME PHARM PROD, dated 2022):

Columns and labels:
HEK293T细胞表达的人CD40 = target: T1, HEK293T细胞表达的人CD40 (human, UniProt P25942 21-277); test: flow cytometry on 293T-huCD40 cells
T1 construct: whole, on cells; also called HEK293T-huCD40

重组人CD40-his蛋白 = target: T2, 重组人CD40-his蛋白 (human, UniProt P25942 21-193); test: BLI (Fortebio Blitz), antibody on AMC sensor, huCD40-his 6.25-200 nM
T2 construct: extracellular domain; Recombinant protein; also called 人CD40(ECD)-his; huCD40-his; not shown: his tag
T2 sequence (P25942 21-193): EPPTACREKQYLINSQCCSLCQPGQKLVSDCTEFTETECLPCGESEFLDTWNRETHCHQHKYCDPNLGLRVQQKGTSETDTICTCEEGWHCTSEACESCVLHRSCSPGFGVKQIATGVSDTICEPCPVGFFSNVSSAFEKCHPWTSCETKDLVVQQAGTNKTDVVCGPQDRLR

T1 sequence (P25942 21-277): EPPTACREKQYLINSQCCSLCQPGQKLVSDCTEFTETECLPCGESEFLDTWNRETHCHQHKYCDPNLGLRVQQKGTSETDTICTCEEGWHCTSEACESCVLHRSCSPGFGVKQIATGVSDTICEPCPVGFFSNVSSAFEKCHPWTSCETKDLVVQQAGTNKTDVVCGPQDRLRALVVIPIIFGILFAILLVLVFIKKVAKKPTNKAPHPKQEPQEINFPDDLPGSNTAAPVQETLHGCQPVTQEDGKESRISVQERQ

| Binder | EC50 (HEK293T细胞表达的人CD40) [µg/mL] | Kd (重组人CD40-his蛋白) [nM] | koff (重组人CD40-his蛋白) [s⁻¹] | kon (重组人CD40-his蛋白) [M⁻¹ s⁻¹] |
| --- | --- | --- | --- | --- |
| 嵌合抗体C42 (antibody, human IgG1, kappa, V domains shown, Mouse-human chimeric IgG1/kappa expressed in Expi-293 cells; also called 42Chimeric; 抗体42D11-8的嵌合抗体) VH: QVQLKQSGPGLVQPSQSLSITCTVSGFSLTSYGVHWVRQSPGKGLEWLGMIWSGGSTDYNSAFISRLSISKDNFKSQVFFKMNSLQADDTAIYYCARVGGDYWGQGTTVTVSS VL: DIVITQTPLSLPVSLGDPASISCRSSQSLVHSRGNTYLHWFLQKPGQSPKLLIYKVSNRFSGVPDRFSGSGSGTDFTLRISRLEAEDLGVYFCFQTTHVPWTFGGGTKLEIKR |  | 13.5 | 0.00524 | 389000 |
| 人源化抗体42 (antibody, human IgG1, kappa, V domains shown, Humanized IgG1/kappa; also called 42D11-8-humanized; 42Humanized) VH: QVQLQESGPGLVKPSQTLSLTCTVSGFSLTSYGVHWVRQHPGKGLEWLGMIWSGGSTDYNSAFISRLTISKDNSKSQVSLKLSSVTAADTAVYYCARVGGDYWGQGTTVTVSS VL: DIVITQSPLSLPVTLGQPASITCRSSQSLVHSRGNTYLHWFQQRPGQSPRLLIYKVSNRFSGVPDRFSGSGSGTDFTLKISRVEAEDVGVYFCFQTTHVPWTFGQGTRLEIKR | 0.251 | 33.2 | 0.00312 | 94000 |

More lines, now with the values ahead:

| EC50 (HEK293T细胞表达的人CD40) [µg/mL] | Kd (重组人CD40-his蛋白) [nM] | koff (重组人CD40-his蛋白) [s⁻¹] | kon (重组人CD40-his蛋白) [M⁻¹ s⁻¹] | Binder |
| --- | --- | --- | --- | --- |
| 0.487 | 38.2 | 0.00533 | 140000 | APX005M (antibody, V domains shown) VH: QVQLVESGGGVVQPGRSLRLSCAASGFSFSSTYVCWVRQAPGKGLEWIACIYTGDGTNYSASWAKGRFTISKDSSKNTVYLQMNSLRAEDTAVYFCARPDITYGFAINFWGPGTLVTVSS VL: DIQMTQSPSSLSASVGDRVTIKCQASQSISSRLAWYQQKPGKPPKLLIYRASTLASGVPSRFSGSGSGTDFTLTISSLQPEDVATYYCQCTGYGISWPIGGGTKVEIK |
|  | 4.52 | 0.000395 | 87500 | 嵌合抗体C31 (antibody, human IgG1, kappa, V domains shown, Mouse-human chimeric IgG1/kappa expressed in Expi-293 cells; also called 31Chimeric; 抗体31A2-2的鼠人嵌合抗体) VH: QVQLKESGPGLVQPSQSLSITCTVSGFSLTNYSVHWVRQSPGKGLEWLGMIWSGGSTDYNAAFISRLSISKDNFKSQVFFKMNSLQADDTAIYYCARVGGDYWGQGTTVTVSS VL: DVLMTQTPLSLPVSLGDPASISCRSSQSLLHSRGNTYLHWFLQKPGQSPKLLIYKVSNRFSGVPDRFSGSGSGTDFTLRISRVEAEDLGVYFCFQTTHVPWTFGGGTKLEIKR |
| 0.297 | 16.5 | 0.00223 | 135000 | 人源化抗体31 (antibody, human IgG1, kappa, V domains shown, Humanized IgG1/kappa; also called 31A2-2-humanized; 31Humanized) VH: QVQLQESGPGLVKPSETLSLTCTVSGFSLTSYSVHWVRQPPGKGLEWLGMIWSGGSTDYNAAFISRLTISKDNSKSQVSLKLSSVTAADTAVYYCARVGGDYWGQGTTVTVSS VL: DVVMTQSPLSLPVTLGQPASITCRSSQSLLHSRGNTYLHWFQQRPGQSPRLLIYKVSNRFSGVPDRFSGSGSGTDFTLKISRVEAEDVGVYFCFQTTHVPWTFGQGTRLEIKR |
